In publication PMC5075775 one finds Kd and binding signal data, which are given here for 21 sequences.

In one data set the test system is monoclonal anti-DNA antibody ED-10. The data set can be described thus: SPR. Conditions: ka 1.009e8, kd 7.860e-1; text also claims higher binding of SEQ4; LNA at 4, 10, 13, 19 of strand 1 by plus signs (Table 1 lists 4, 10, 14, 19); SPR: Biacore X100, SA chip, immobilisation in HBS-EP+ (0.1 M HEPES, 1.5 M NaCl, 30 mM EDTA, 0.5% P20), 37 C; ELISA: antigens coated in PBS, diluent PBS ….
In the case of “TCCTCTCTTTCTCTTTCTCTT (double strand) [SEQ4 biotinylated LNA/DNA duplex (SPR)]”, the Kd came to 0.779 µM.

The same data set, now with this note: ka 3.341e3, kd 3.531e-4; SPR: Biacore X100, SA chip, immobilisation in HBS-EP+ (0.1 M HEPES, 1.5 M NaCl, 30 mM EDTA, 0.5% P20), 37 C; ELISA: antigens coated in PBS, diluent PBS ….
Sequence “TCCTCTCTTTCTCTTTCTCTT (double strand) [SEQ5 biotinylated duplex (SPR)]” returned a dissociation constant (Kd) of 0.106 µM.

The subject of the next data set is monoclonal anti-dsDNA antibody HYB 331-01, clone 35I9. The data set can be described thus: ELISA. To be noted: LNA at 1, 4 of strand 1; SPR: Biacore X100, SA chip, immobilisation in HBS-EP+ (0.1 M HEPES, 1.5 M NaCl, 30 mM EDTA, 0.5% P20), 37 C; ELISA: antigens coated in PBS, diluent PBS ….
In turn, “TCCTCTCTTTCTCTTTCTCTT (double strand) [D20]” displayed a binding signal of 0.89 A450.

The same data set, now with this note: LNA at 4, 13, 19 of strand 1; SPR: Biacore X100, SA chip, immobilisation in HBS-EP+ (0.1 M HEPES, 1.5 M NaCl, 30 mM EDTA, 0.5% P20), 37 C; ELISA: antigens coated in PBS, diluent PBS ….
For the sequence “TCCTCTCTTTCTCTTTCTCTT (double strand) [D19 (LNA pattern of SEQ1)]”, the binding signal was 1.12 A450.

The same data set, now with this note: LNA at 4 of strand 1; SPR: Biacore X100, SA chip, immobilisation in HBS-EP+ (0.1 M HEPES, 1.5 M NaCl, 30 mM EDTA, 0.5% P20), 37 C; ELISA: antigens coated in PBS, diluent PBS ….
“TCCTCTCTTTCTCTTTCTCTT (double strand) [D22]” gave a binding signal of 0.56 A450.

The same data set, now with this note: LNA at 11, 13 of strand 1; SPR: Biacore X100, SA chip, immobilisation in HBS-EP+ (0.1 M HEPES, 1.5 M NaCl, 30 mM EDTA, 0.5% P20), 37 C; ELISA: antigens coated in PBS, diluent PBS ….
For “TCCTCTCTTTCTCTTTCTCTT (double strand) [D21]”, the binding signal came to 0.77 A450.

The same data set, now with this note: SPR: Biacore X100, SA chip, immobilisation in HBS-EP+ (0.1 M HEPES, 1.5 M NaCl, 30 mM EDTA, 0.5% P20), 37 C; ELISA: antigens coated in PBS, diluent PBS ….
The sequence “AGGGAGGGGGAGAGGGAGAGG (double strand) [D11 (AG)]” displayed a binding signal of 0.78 A450.
On the same count and under the same terms, the figure for “ATTTATTTTT (double strand) [D16 (AT 10mer)]” is 0.76 A450; for “ATTTATTTTTATATTTATATT (double strand) [D8 (AT, SEQ6)]” it is 1.27 A450.
The same measure, in the same setting: for “ATTTATTTTTATATTTATATTATTTATTTTTATATTTATATTATTTATTTTTATATTTATATT (double strand) [D18 (AT 63mer)]” the value was 1.44 A450.
For the sequence “CCACACCCACACCCCCACCCA (double strand) [D12 (CA)]”, the binding signal was found to be 0.78 A450.
On the same count and under the same terms, for “GGAGAGGGAGAGGGGGAGGGA (double strand) [D13 (GA)]” the value was 0.89 A450.
The same measure, in the same setting: the figure for “TAATATATTTATATTTATATT (double strand) [D2 (TA)]” is 1.11 A450.
Same read-out and setting: the figure for “TCCTCTCTTT (double strand) [D15 (TC 10mer)]” is 0.9 A450; for “TCCTCTCTTTCTCTTTCTCTT (double strand) [D1 (SEQ5)]” it is 1.41 A450.
“TCCTCTCTTTCTCTTTCTCTTTCCTCTCTTTCTCTTTCTCTTTCCTCTCTTTCTCTTTCTCTT (double strand) [D17 (TC 63mer)]” registered a binding signal of 1.5 A450.
On to “TGAACTCTATGTCTGTATCAT (double strand) [D14 (ATCG mixmer, SEQ7)]”, for which the binding signal is 1.55 A450.
Still for that read-out and setting: the figure for “TGGTGTGTTTGTGTTTGTGTT (double strand) [D3 (TG)]” is 1.13 A450; for “TTATATTTATATTTATATAAT (double strand) [D6 (AT)]” it is 1 A450; for “TTCTCTTTCTCTTTCTCTCCT (double strand) [D5 (CT)]” it is 0.98 A450.
Still for that read-out and setting: the figure for “TTGTGTTTGTGTTTGTGTGGT (double strand) [D7 (GT)]” is 1.87 A450.
